Source: patent US20220017612A1 (TILOS THERAPEUTICS, published 2022)

target: T1, fusion protein of a human IgG1 Fc domain and human LAP-TGFβ1 (human, UniProt P01137 30-390); assay: BLI (Octet)
T1 construct: printed both as Fc-huB1 and LAP-TGFβ-Fc; also called Fc-huB1; Fc-human LAP
T1 sequence (P01137 30-390 limits assumed): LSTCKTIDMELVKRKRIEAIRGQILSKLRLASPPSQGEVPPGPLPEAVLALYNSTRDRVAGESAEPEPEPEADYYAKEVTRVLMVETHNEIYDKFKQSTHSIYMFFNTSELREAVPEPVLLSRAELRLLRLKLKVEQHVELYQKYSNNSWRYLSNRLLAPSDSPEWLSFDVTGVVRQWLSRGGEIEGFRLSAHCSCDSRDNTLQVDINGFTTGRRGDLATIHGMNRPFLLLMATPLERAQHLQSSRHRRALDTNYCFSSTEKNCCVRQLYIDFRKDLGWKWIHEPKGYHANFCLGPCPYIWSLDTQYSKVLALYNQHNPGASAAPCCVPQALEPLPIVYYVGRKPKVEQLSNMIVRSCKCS

Binder	Kd [nM]	koff [s⁻¹]	kon [M⁻¹ s⁻¹]
20E6_H2L1 (antibody, human IgG1, kappa, V domains shown) VH: QVQLVQSGAEVKKPGASVKVSCKASGYTFTSYWMHWVRQAPGQGLEWIGRIDPNSGGIKYNEKFKSRVTLTVDKSSSTAYMELSRLRSDDTAVYYCARWDYGGYFDVWGQGTLVTVSS VL: DIQMTQSPSSLSASVGDRVTITCRASQDITNYLNWYQQKPGKAVKLLIYYTSRLHSGVPSRFSGSGSGTDYTLTISSLQPEDFATYFCQQGDTLPWTFGQGTKLEIKR	0.48	0.000747	1.57e+06
20E6_H4L1 (antibody, human IgG1, kappa) heavy: not shown light: DIQMTQSPSSLSASVGDRVTITCRASQDITNYLNWYQQKPGKAVKLLIYYTSRLHSGVPSRFSGSGSGTDYTLTISSLQPEDFATYFCQQGDTLPWTFGQGTKLEIKRTVAAPSVFIFPPSDEQLKSGTASVVCLLNNFYPREAKVQWKVDNALQSGNSQESVTEQDSKDSTYSLSSTLTLSKADYEKHKVYACEVTHQGLSSPVTKSFNRGEC	0.47	0.000729	1.56e+06

Second part, the binder after the results:

Kd [nM]	koff [s⁻¹]	kon [M⁻¹ s⁻¹]	Binder
0.48	0.000677	1.41e+06	20E6_H1L1 (antibody, human IgG1, kappa, V domains shown) VH: QVQLVQSGAEVKKPGASVKVSCKASGYTFTSYWMHWVRQAPGQGLEWIGRIDPNSGGIKYNEKFKSRVTLTVDTSISTAYMELSRLRSDDTAVYYCARWDYGGYFDVWGQGTLVTVSS VL: DIQMTQSPSSLSASVGDRVTITCRASQDITNYLNWYQQKPGKAVKLLIYYTSRLHSGVPSRFSGSGSGTDYTLTISSLQPEDFATYFCQQGDTLPWTFGQGTKLEIKR
0.47	0.000702	1.48e+06	20E6_H3L1 (antibody, human IgG1, kappa) heavy: not shown light: DIQMTQSPSSLSASVGDRVTITCRASQDITNYLNWYQQKPGKAVKLLIYYTSRLHSGVPSRFSGSGSGTDYTLTISSLQPEDFATYFCQQGDTLPWTFGQGTKLEIKRTVAAPSVFIFPPSDEQLKSGTASVVCLLNNFYPREAKVQWKVDNALQSGNSQESVTEQDSKDSTYSLSSTLTLSKADYEKHKVYACEVTHQGLSSPVTKSFNRGEC
0.51	0.000814	1.59e+06	20E6_H0L1 (antibody, human IgG1, kappa, V domains shown) VH: QVQLVQSGAEVKKPGASVKVSCKASGYTFTSYWMHWVRQAPGQGLEWMGRIDPNSGGIKYNEKFKSRVTMTRDTSISTAYMELSRLRSDDTAVYYCARWDYGGYFDVWGQGTLVTVSS VL: DIQMTQSPSSLSASVGDRVTITCRASQDITNYLNWYQQKPGKAVKLLIYYTSRLHSGVPSRFSGSGSGTDYTLTISSLQPEDFATYFCQQGDTLPWTFGQGTKLEIKR

target: T2, human LAP-TGFβ1 overexpressed on cells (human, UniProt P01137 30-390); assay: flow cytometry; black bar HT1080-huB1, grey bar HT1080
T2 construct: HT1080 or P3U1 cells overexpressing wild-type human LAP-TGFβ1; also called HT1080-huB1; HT1080-hβ1
Protocol: First, the ability of 22F9H0L0, HILO, H2L0, H3L0, H4L0, H5L0, H0L1, H1L1, H2L1, H3L1, H4L1, H5L1, H0L2, H1L2, H2L2, H3L3, H4L2, and H5L2 to bind to HT1080 cells overexpressing human TGFβ1 was tested by flow cytometry. HT1080 cells over-expressing human LAP-TGFβ1 were placed in a round-bottom 96-well plate at density of 40,000 cells/well. The cells were washed with FACS buffer (25 mM HEPES, 2 mM EDTA, 2% fetal bovine serum in Hank's Balanced Salt Solution). 50 μL of 1:200 diluted TruStain Human FcX (BioLegend) was added to each well, followed by 50 μL of 100 ng/μL of humanized 22F9 construct. The antibody was allowed to bind for 20 minutes. The cells were washed twice with FACS buffer. The cells were labeled for 15 minutes with Alexa647-anti Human IgG (Jackson Immunoresearch), washed twice with FACS buffer, and analyzed by flow cytometry.

T2 sequence (P01137 30-390): as the sequence (P01137 30-390 limits assumed) above

Binder	binding result
22F9_H2L0 (antibody, human IgG1, kappa, V domains shown) VH: QVQLVQSGAEVKKPGASVKVSCKASGYTFTSYWMHWVRQAPGQGLEWIGMIHPNSGSTNYNEKFKSRVTLTVDTSTSTAYMELSSLRSEDTAVYYCAYYDYDGFFDVWGQGTLVTVSS VL: DIQLTQSPSSLSASVGDRVTITCRASKSVSTSGYSYMHWYQQKPGKAPKLLIYLASNLESGVPSRFSGSGSGTDFTLTISSLQPEDFATYYCQHSRELPYTFGGGTKVEIKR	binds
22F9_H2L1 (antibody, human IgG1, kappa, V domains shown) VH: QVQLVQSGAEVKKPGASVKVSCKASGYTFTSYWMHWVRQAPGQGLEWIGMIHPNSGSTNYNEKFKSRVTLTVDTSTSTAYMELSSLRSEDTAVYYCAYYDYDGFFDVWGQGTLVTVSS VL: DIQLTQSPSSLSASVGDRVTITCRASKSVSTSGYSYMHWYQQKPGKPPKLLIYLASNLESGVPSRFSGSGSGTHFTLTISSLQPEDFATYYCQHSRELPYTFGGGTKVEIKR	binds

target: T2, human LAP-TGFβ1 overexpressed on cells; assay: as above; remark: another data set of the same source

Binder	binding result
T30S_V44P (antibody, human IgG1, kappa, V domains shown, also called 28G11_H2L3 with HC T30S and LC V44P) VH: EVQLVESGGGLVQPGGSLRLSCAASGFTFSDYYMSWVRQAPGKGLEWLGFIRNKPNGYTTEYSASVKGRFTISRDNSQSSLYLQMNSLKTEDTAVYYCARYTGGGYFDYWGQGTLLTVSS VL: DIQMTQSPSSLSASVGDRLTISCRASQDISNYLNWYQQKPGKTPKLLIYYTSRLHSGVPSRFSGSGSGTDYTLTISSLQPEDVATYFCQQGDTLPWTFGQGTKLEIKR	binds
S76N_T43V (antibody, human IgG1, kappa, V domains shown, also called 28G11_H2L3 with HC S76N and LC T43V) VH: EVQLVESGGGLVQPGGSLRLSCAASGFTFTDYYMSWVRQAPGKGLEWLGFIRNKPNGYTTEYSASVKGRFTISRDNSQNSLYLQMNSLKTEDTAVYYCARYTGGGYFDYWGQGTLLTVSS VL: DIQMTQSPSSLSASVGDRLTISCRASQDISNYLNWYQQKPGKVVKLLIYYTSRLHSGVPSRFSGSGSGTDYTLTISSLQPEDVATYFCQQGDTLPWTFGQGTKLEIKR	binds
Q75K_WT (antibody, human IgG1, kappa, also called 28G11_H2L3 with HC Q75K) heavy: not shown light: DIQMTQSPSSLSASVGDRLTISCRASQDISNYLNWYQQKPGKTVKLLIYYTSRLHSGVPSRFSGSGSGTDYTLTISSLQPEDVATYFCQQGDTLPWTFGQGTKLEIKRTVAAPSVFIFPPSDEQLKSGTASVVCLLNNFYPREAKVQWKVDNALQSGNSQESVTEQDSKDSTYSLSSTLTLSKADYEKHKVYACEVTHQGLSSPVTKSFNRGEC	binds
S76N_WT (antibody, human IgG1, kappa, V domains shown, also called 28G11_H2L3 with HC S76N) VH: EVQLVESGGGLVQPGGSLRLSCAASGFTFTDYYMSWVRQAPGKGLEWLGFIRNKPNGYTTEYSASVKGRFTISRDNSQNSLYLQMNSLKTEDTAVYYCARYTGGGYFDYWGQGTLLTVSS VL: DIQMTQSPSSLSASVGDRLTISCRASQDISNYLNWYQQKPGKTVKLLIYYTSRLHSGVPSRFSGSGSGTDYTLTISSLQPEDVATYFCQQGDTLPWTFGQGTKLEIKR	binds
T30S_T43V (antibody, human IgG1, kappa, V domains shown, also called 28G11_H2L3 with HC T30S and LC T43V) VH: EVQLVESGGGLVQPGGSLRLSCAASGFTFSDYYMSWVRQAPGKGLEWLGFIRNKPNGYTTEYSASVKGRFTISRDNSQSSLYLQMNSLKTEDTAVYYCARYTGGGYFDYWGQGTLLTVSS VL: DIQMTQSPSSLSASVGDRLTISCRASQDISNYLNWYQQKPGKVVKLLIYYTSRLHSGVPSRFSGSGSGTDYTLTISSLQPEDVATYFCQQGDTLPWTFGQGTKLEIKR	binds
S76N_V44P (antibody, human IgG1, kappa, V domains shown, also called 28G11_H2L3 with HC S76N and LC V44P) VH: EVQLVESGGGLVQPGGSLRLSCAASGFTFTDYYMSWVRQAPGKGLEWLGFIRNKPNGYTTEYSASVKGRFTISRDNSQNSLYLQMNSLKTEDTAVYYCARYTGGGYFDYWGQGTLLTVSS VL: DIQMTQSPSSLSASVGDRLTISCRASQDISNYLNWYQQKPGKTPKLLIYYTSRLHSGVPSRFSGSGSGTDYTLTISSLQPEDVATYFCQQGDTLPWTFGQGTKLEIKR	binds

Continued, values first:

binding result	Binder
binds	Q75K_L19V (antibody, human IgG1, kappa, also called 28G11_H2L3 with HC Q75K and LC L19V) heavy: not shown light: DIQMTQSPSSLSASVGDRVTISCRASQDISNYLNWYQQKPGKTVKLLIYYTSRLHSGVPSRFSGSGSGTDYTLTISSLQPEDVATYFCQQGDTLPWTFGQGTKLEIKRTVAAPSVFIFPPSDEQLKSGTASVVCLLNNFYPREAKVQWKVDNALQSGNSQESVTEQDSKDSTYSLSSTLTLSKADYEKHKVYACEVTHQGLSSPVTKSFNRGEC
binds	S76N_F87Y (antibody, human IgG1, kappa, V domains shown, also called 28G11_H2L3 with HC S76N and LC F87Y) VH: EVQLVESGGGLVQPGGSLRLSCAASGFTFTDYYMSWVRQAPGKGLEWLGFIRNKPNGYTTEYSASVKGRFTISRDNSQNSLYLQMNSLKTEDTAVYYCARYTGGGYFDYWGQGTLLTVSS VL: DIQMTQSPSSLSASVGDRLTISCRASQDISNYLNWYQQKPGKTVKLLIYYTSRLHSGVPSRFSGSGSGTDYTLTISSLQPEDVATYYCQQGDTLPWTFGQGTKLEIKR
no binding	T30S_Y71F (antibody, human IgG1, kappa, V domains shown, also called 28G11_H2L3 with HC T30S and LC Y71F) VH: EVQLVESGGGLVQPGGSLRLSCAASGFTFSDYYMSWVRQAPGKGLEWLGFIRNKPNGYTTEYSASVKGRFTISRDNSQSSLYLQMNSLKTEDTAVYYCARYTGGGYFDYWGQGTLLTVSS VL: DIQMTQSPSSLSASVGDRLTISCRASQDISNYLNWYQQKPGKTVKLLIYYTSRLHSGVPSRFSGSGSGTDFTLTISSLQPEDVATYFCQQGDTLPWTFGQGTKLEIKR
binds	Q75K_V44P (antibody, human IgG1, kappa, V domains shown, also called 28G11_H2L3 with HC Q75K and LC V44P) VH: EVQLVESGGGLVQPGGSLRLSCAASGFTFTDYYMSWVRQAPGKGLEWLGFIRNKPNGYTTEYSASVKGRFTISRDNSKSSLYLQMNSLKTEDTAVYYCARYTGGGYFDYWGQGTLLTVSS VL: DIQMTQSPSSLSASVGDRLTISCRASQDISNYLNWYQQKPGKTPKLLIYYTSRLHSGVPSRFSGSGSGTDYTLTISSLQPEDVATYFCQQGDTLPWTFGQGTKLEIKR
binds	T30S_F87Y (antibody, human IgG1, kappa, V domains shown, also called 28G11_H2L3 with HC T30S and LC F87Y) VH: EVQLVESGGGLVQPGGSLRLSCAASGFTFSDYYMSWVRQAPGKGLEWLGFIRNKPNGYTTEYSASVKGRFTISRDNSQSSLYLQMNSLKTEDTAVYYCARYTGGGYFDYWGQGTLLTVSS VL: DIQMTQSPSSLSASVGDRLTISCRASQDISNYLNWYQQKPGKTVKLLIYYTSRLHSGVPSRFSGSGSGTDYTLTISSLQPEDVATYYCQQGDTLPWTFGQGTKLEIKR
binds	Q75K_T43V (antibody, human IgG1, kappa, V domains shown, also called 28G11_H2L3 with HC Q75K and LC T43V) VH: EVQLVESGGGLVQPGGSLRLSCAASGFTFTDYYMSWVRQAPGKGLEWLGFIRNKPNGYTTEYSASVKGRFTISRDNSKSSLYLQMNSLKTEDTAVYYCARYTGGGYFDYWGQGTLLTVSS VL: DIQMTQSPSSLSASVGDRLTISCRASQDISNYLNWYQQKPGKVVKLLIYYTSRLHSGVPSRFSGSGSGTDYTLTISSLQPEDVATYFCQQGDTLPWTFGQGTKLEIKR
